According to paper PMC5540154:

Biological target: D. melanogaster Isu (fIscU) (D. melanogaster) (UniProt Q9VHK6)
Experiment: SEC

For “D. melanogaster Isu (fIscU) (from UniProt Q9VHK6 1-154) (natural protein)”, the stoichiometry N was 2.
